The target in experiment [1] is collagen fibril (porcine skin fiber, Nippi, Inc) (porcine). Briefly: collagen fibril binding assay (spin column, SDS-PAGE of the unbound protein, Scatchard plot).
The target in experiment [2] is mini-collagen peptide H-Gly-Pro-Arg-Gly-(Pro-Hyp-Gly)12-NH2. Put plainly: SPR (Biacore); ratio of KD, ColHS2bS3 = 1.00.
The target is the same in experiment [3]. Put plainly: SPR (Biacore), peptide immobilized, equilibrium fit, apparent KD.

The substance “collagen-binding domain s3a derived from Clostridium histolyticum class I collagenase ColG (from UniProt Q9X721 886-1003)” returned a Kd in experiment [1] of 100 µM.

“collagen-binding domain s3b derived from Clostridium histolyticum class I collagenase ColG (from UniProt Q9X721 1003-1118)”: the Ratio in experiment [2] was determined as 0.102. In addition, the Kd in experiment [3] was 45.4 µM.

Consider “tandem collagen-binding domain (s3a-s3b) derived from Clostridium histolyticum class I collagenase ColG (from UniProt Q9X721 886-1118)”, for which the Ratio in experiment [2] came out at 0.1. Moreover, in experiment [3], the Kd is 44.6 µM.

The record behind these values is patent US20190376053A1.
